Patent US20190184007A1

What was measured:
[1] = biological target: T1, HLA DQA1*0102:DQB1*0602, P01920; test: REVEAL class II binding assay (cell-free)
T1 chain 1: not shown
T1 chain 2: not shown

[2] = biological target: T2, HLA DQA1*0101:DQB1*0501; test: REVEAL class II binding assay (cell-free)
T2 chain 1: not shown
T2 chain 2: not shown

Binder RELILYDKEEIRRIWRQANNG (modifications not checked) [Peptide #1 (X179-A NP fragment)] has an REVEAL 0 hrs (% of positive control signal) [1] of 24.4, an REVEAL 24 hours (% of positive control signal) [1] of 16.9 and a Stability index [1] of 11.1. The REVEAL 0 hrs (% of positive control signal) [2] was 27.8 and the REVEAL 24 hours (% of positive control signal) [2] was 7.4.

With ALNRGSGSGIITSDA (modifications not checked) [Peptide #17 (Hemagglutinin fragment)] the REVEAL 0 hrs (% of positive control signal) [1] was 0, the REVEAL 24 hours (% of positive control signal) [1] was 0 and the Stability index [1] was 0. It also gave an REVEAL 0 hrs (% of positive control signal) [2] of 0, an REVEAL 24 hours (% of positive control signal) [2] of 0 and a Stability index [2] of 0.

ALSRGFGSGIITSNA (modifications not checked) [Peptide #18 (Hemagglutinin fragment)] was tested, and the REVEAL 0 hrs (% of positive control signal) [1] was 0, the REVEAL 24 hours (% of positive control signal) [1] was 0 and the Stability index [1] was 0. It also gave an REVEAL 0 hrs (% of positive control signal) [2] of 0, an REVEAL 24 hours (% of positive control signal) [2] of 0 and a Stability index [2] of 0.

RELILYDKEEMRRIWRQANNG (modifications not checked) [Peptide #2 (X181 NP fragment)] showed an REVEAL 24 hours (% of positive control signal) [1] of 0.5, an REVEAL 0 hrs (% of positive control signal) [2] of 1.1 and an REVEAL 24 hours (% of positive control signal) [2] of 1.

For LILYDKEEMRRIWRQ (modifications not checked) [Peptide #4 (X181 NP fragment)], the REVEAL 0 hrs (% of positive control signal) [1] was 0.5, the REVEAL 24 hours (% of positive control signal) [1] was 0.4 and the Stability index [1] was 0.6. For the same binder, the REVEAL 0 hrs (% of positive control signal) [2] was 0.1, the REVEAL 24 hours (% of positive control signal) [2] was 0.1 and the Stability index [2] was 0.1.

For VGKMIGGIGRFYIQM (modifications not checked) [Peptide #5 (Common CP sequence)], the REVEAL 0 hrs (% of positive control signal) [1] was 77.3, the REVEAL 24 hours (% of positive control signal) [1] was 52.3 and the Stability index [1] was 33. It also gave an REVEAL 0 hrs (% of positive control signal) [2] of 43.6, an REVEAL 24 hours (% of positive control signal) [2] of 13.9 and a Stability index [2] of 6.4.

SGAAGAAVKGVGTMV (modifications not checked) [Peptide #6 (Common CP sequence)] showed an REVEAL 0 hrs (% of positive control signal) [1] of 0.1, an REVEAL 24 hours (% of positive control signal) [1] of 0.1 and a Stability index [1] of 0.1. The REVEAL 0 hrs (% of positive control signal) [2] was 0, the REVEAL 24 hours (% of positive control signal) [2] was 0 and the Stability index [2] was 0.

EKATNPIVPSFDMSN (modifications not checked) [Peptide #7 (Common CP sequence)] was tested, and the REVEAL 0 hrs (% of positive control signal) [1] was 0, the REVEAL 24 hours (% of positive control signal) [1] was 0 and the Stability index [1] was 0. The REVEAL 0 hrs (% of positive control signal) [2] was 0, the REVEAL 24 hours (% of positive control signal) [2] was 0 and the Stability index [2] was 0.

In the case of IDPFKLLQNSQVVSL (modifications not checked) [Peptide #8 (Common CP sequence)], the REVEAL 0 hrs (% of positive control signal) [1] is reported as 0.1, the REVEAL 24 hours (% of positive control signal) [1] is reported as 0.1 and the Stability index [1] is reported as 0.1. It also gave an REVEAL 0 hrs (% of positive control signal) [2] of 0, an REVEAL 24 hours (% of positive control signal) [2] of 0 and a Stability index [2] of 0.

LTVAAWSVKTSPLNM (modifications not checked) [Peptide #13 (Reverse of #10)] was tested, and the REVEAL 0 hrs (% of positive control signal) [1] was 0.9, the REVEAL 24 hours (% of positive control signal) [1] was 0.4 and the Stability index [1] was 0.2. The REVEAL 0 hrs (% of positive control signal) [2] was 0.3, the REVEAL 24 hours (% of positive control signal) [2] was 0.3 and the Stability index [2] was 0.4.

For AMERNAGSGIIISDT (modifications not checked) [Peptide #16 (Hemagglutinin fragment)], the REVEAL 0 hrs (% of positive control signal) [1] was 0, the REVEAL 24 hours (% of positive control signal) [1] was 0 and the Stability index [1] was 0. The REVEAL 0 hrs (% of positive control signal) [2] was 0.1, the REVEAL 24 hours (% of positive control signal) [2] was 0.1 and the Stability index [2] was 0.1.
